± gives the uncertainty stated by the source.
Assay: self-splicing fitness, log relative to wild type (ln ratio); higher = more splicing; Tetrahymena group I intron in knt gene, E. coli kanamycin selection, DiMSum; sequences stand for … in CUCUCU…GGAGGGAAAAGUUAUCAGGCAUGCACCUGGUAGCUAGUCUUUAAACCAAUAGAUUGCAUCGGUUUAAAAGGCAAGACCGUCAAAUUGCGGGAAAGGGGUCAACAGCCGUUCAGUACCAAGUCUCAGGGGAAACUUUGAGAUGGCCUUGCAAAGGGUAUGGUAAUAAGCUGACGGACAUGGUCCUAACCACGCAGCCAAGUCCUAAGUCAACAGAUCUUCUGUUGAUAUGGAUGCAGUUCACAGACUAAAUGUCGGUCGGGGAAGAUGUAUUCUUCUCAUAAGAUAUAGUCGGACCUCUCCUUAAUGGGAGCUAGCGGAUGAAGUGAUGCAACACUGGAGCCGCUGGGAACUAAUUUGUAUGCGAAAGUAUAUUGAUUAGUUUUGGAGUACUCGUGGUCG
In short: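 A randomised library covering all eight P1ex-region intron nucleotides was built with the intron in the knt kanamycin-resistance gene on pET-22b(+) and held in E. coli BL21(DE3). Cells were grown overnight at 37°C or 30°C on LB agar, with or without 25 μg/mL kanamycin, plus 100 μg/mL carbenicillin, 50 μM IPTG and 0.2% rhamnose, and pooled colonies were amplicon-sequenced on an Illumina HiSeq 2500. DiMSum fitness is the error-weighted combination of wild-type-normalised replicate fold changes, kanamycin versus none.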

Sequence	self-splicing fitness (ln) (30 °C)	self-splicing fitness (ln) (37 °C)
AAUUAGCAAUAUUACGACGU	0.421 ± 0.095	-0.3 ± 0.075
UAGUAGCAAUAUUACGGUUA	-0.28 ± 0.077	0.03 ± 0.091
CUAUAGCAAUAUUACGAGUU	-3.04 ± 0.16	-0.864 ± 0.18
UGCGAGCAAUAUUACGUUGA	-3.05 ± 0.27	-3.53 ± 0.32
GAGUAGCAAUAUUACGACAG	-3.07 ± 0.44	-2.99 ± 0.24
GCAGAGCAAUAUUACGUCCC		-1.04 ± 0.34
GAAAAGCAAUAUUACGAUUG	-2.27 ± 0.13	-1.52 ± 0.14
CUUGAGCAAUAUUACGCGAG	-3.64 ± 0.16	-2.82 ± 0.23
AACUAGCAAUAUUACGAAUC	-2.81 ± 0.17	-1.27 ± 0.19
AGUCAGCAAUAUUACGUUGA		-3.49 ± 0.31
UUUAAGCAAUAUUACGCGUC	-1.9 ± 0.18	-1.77 ± 0.25
AGUCAGCAAUAUUACGCAGA	-1.64 ± 0.2	-1.45 ± 0.22
GACUAGCAAUAUUACGGAGC	-1.58 ± 0.16	-2.19 ± 0.2
AAAAAGCAAUAUUACGAGUC	-3.46 ± 0.22	-1.28 ± 0.19
AUCUAGCAAUAUUACGGGCU	-2.22 ± 0.16	-2.49 ± 0.23
CUAGAGCAAUAUUACGACCG	0.13 ± 0.13	0.707 ± 0.18
UUGUAGCAAUAUUACGGACA	-1.61 ± 0.31	-0.454 ± 0.39
CCUGAGCAAUAUUACGCAAC	-2.76 ± 0.33	-1.78 ± 0.27
ACCAAGCAAUAUUACGGGGA	-2.16 ± 0.09	-1.85 ± 0.098
GCUUAGCAAUAUUACGGCCA		-0.846 ± 0.27
AGACAGCAAUAUUACGACAC	-1 ± 0.11	-0.662 ± 0.14
UUUAAGCAAUAUUACGUGUC	-3.99 ± 0.33	-2.65 ± 0.25
UGUUAGCAAUAUUACGGAUC	-2.29 ± 0.35	-1.81 ± 0.27
GCGGAGCAAUAUUACGCCAG	-2.22 ± 0.42	-2.26 ± 0.42
AGUUAGCAAUAUUACGGUCG	-0.622 ± 0.094	-0.715 ± 0.14

Sequence	self-splicing fitness (ln) (30 °C)	self-splicing fitness (ln) (37 °C)
AAGGAGCAAUAUUACGCUGU	-2.59 ± 0.22	-1.64 ± 0.23
AUAUAGCAAUAUUACGGAAG	-3.08 ± 0.36	-1.27 ± 0.34
UGGCAGCAAUAUUACGGAUG	-1.79 ± 0.17	-0.817 ± 0.19
UAUGAGCAAUAUUACGCUAA	-1.99 ± 0.23	-2.39 ± 0.25
CUGAAGCAAUAUUACGCCAU	-3.41 ± 0.31	-2.52 ± 0.36
UGGCAGCAAUAUUACGCCCC	-1.11 ± 0.29	-0.487 ± 0.36
GCGGAGCAAUAUUACGAAAC	-3.16 ± 0.31	-0.996 ± 0.24
UUGGAGCAAUAUUACGUAUC	-2.95 ± 0.2	
CCCAAGCAAUAUUACGCGCU	-3.79 ± 0.34	-1.91 ± 0.25
UUUUAGCAAUAUUACGCCAG	-2.13 ± 0.47	
CCACAGCAAUAUUACGCAAA	-2.03 ± 0.22	-3.24 ± 0.32
UCUAAGCAAUAUUACGAUAC	-2.38 ± 0.25	-2.95 ± 0.47
ACAUAGCAAUAUUACGAUCU	0.0431 ± 0.089	-0.196 ± 0.1
CGCCAGCAAUAUUACGGUCC	-0.387 ± 0.13	-0.161 ± 0.16
UAGGAGCAAUAUUACGCAAG		-0.879 ± 0.22
AGCCAGCAAUAUUACGUUUA	-2.7 ± 0.35	-2.48 ± 0.38
UCCUAGCAAUAUUACGUGGC	-3.85 ± 0.24	-1.78 ± 0.2
GGGAAGCAAUAUUACGUCCA	0.145 ± 0.14	0.69 ± 0.16
UAGAAGCAAUAUUACGUUUC	-2.28 ± 0.16	-0.293 ± 0.17
GUGGAGCAAUAUUACGGGGC	-3.48 ± 0.48	-1.93 ± 0.31
GGUGAGCAAUAUUACGGUUU	-2.12 ± 0.13	-1.25 ± 0.18
AAGCAGCAAUAUUACGCCAA	-2.31 ± 0.21	-2.04 ± 0.21
CCGGAGCAAUAUUACGCACC	-1.27 ± 0.38	
UAGCAGCAAUAUUACGUUGG	-2.36 ± 0.089	-2.22 ± 0.12
GUCGAGCAAUAUUACGACCA		-0.961 ± 0.42

Sequence	self-splicing fitness (ln) (30 °C)	self-splicing fitness (ln) (37 °C)
AUAAAGCAAUAUUACGUUGG	-2.08 ± 0.11	-2.15 ± 0.15
GGUCAGCAAUAUUACGGCCG	-1.83 ± 0.33	-1.64 ± 0.33
GCUGAGCAAUAUUACGACUG	-2.16 ± 0.35	-0.83 ± 0.38
UGGUAGCAAUAUUACGCCUG	0.0915 ± 0.14	0.675 ± 0.2
CCCCAGCAAUAUUACGCAUA	-2.67 ± 0.14	-2.4 ± 0.2
ACUGAGCAAUAUUACGGUAC	-3.19 ± 0.48	
ACAUAGCAAUAUUACGAAUU	-3.3 ± 0.2	-1.26 ± 0.14
UUAAAGCAAUAUUACGCGUA	-0.515 ± 0.12	0.118 ± 0.14
AGUGAGCAAUAUUACGCUUC	-2.41 ± 0.25	-2.7 ± 0.34
CGGGAGCAAUAUUACGACUG	-3.19 ± 0.22	-1.55 ± 0.18
GAGUAGCAAUAUUACGAUGU	-2.23 ± 0.11	-0.716 ± 0.12
ACCGAGCAAUAUUACGAGCU	-2.94 ± 0.23	-2.54 ± 0.28
AUUGAGCAAUAUUACGAAGG	-2.69 ± 0.36	-2.39 ± 0.3
UACAAGCAAUAUUACGACUU	-1.19 ± 0.081	-0.692 ± 0.097
GGAAAGCAAUAUUACGCGCG	-0.394 ± 0.08	-0.275 ± 0.12
UCGGAGCAAUAUUACGCACU	-3.53 ± 0.25	-2.23 ± 0.23
UUAGAGCAAUAUUACGGUAC	-3.85 ± 0.26	-2.79 ± 0.4
UGCGAGCAAUAUUACGUUAA	-2.48 ± 0.29	-2.45 ± 0.31
AACCAGCAAUAUUACGUCGG	-3.79 ± 0.12	-1.41 ± 0.094
GCCCAGCAAUAUUACGGCCA	-2.6 ± 0.27	-0.571 ± 0.18
ACUCAGCAAUAUUACGUGUG	-1.39 ± 0.061	-1.3 ± 0.072
AAUGAGCAAUAUUACGGAUG	-3.35 ± 0.17	-2.23 ± 0.22
CGAUAGCAAUAUUACGACGC	-2.34 ± 0.39	0.00994 ± 0.27
CCAGAGCAAUAUUACGCUAA	-2.74 ± 0.24	-2.57 ± 0.24
UACUAGCAAUAUUACGUGUG	-1.37 ± 0.067	-0.828 ± 0.072

Sequence	self-splicing fitness (ln) (30 °C)	self-splicing fitness (ln) (37 °C)
AUCGAGCAAUAUUACGCUUC		-3.02 ± 0.44
UUCGAGCAAUAUUACGUAGA	-3.11 ± 0.16	-1.97 ± 0.17
ACGUAGCAAUAUUACGUAUU	-3.93 ± 0.17	-2.48 ± 0.15
CUGGAGCAAUAUUACGGGGG	-2.27 ± 0.26	-1.89 ± 0.4
UUCUAGCAAUAUUACGCGGG	-3.28 ± 0.23	-2.29 ± 0.22
CCAAAGCAAUAUUACGCGGU	-4.85 ± 0.29	-1.78 ± 0.21
AUAUAGCAAUAUUACGCAGU	-2.86 ± 0.25	-3.1 ± 0.33
CCAUAGCAAUAUUACGGACU	-3.84 ± 0.33	-1.85 ± 0.29
UAGUAGCAAUAUUACGGUAU	-2.55 ± 0.24	-2.39 ± 0.35
GAGAAGCAAUAUUACGGCUA	0.0865 ± 0.09	-0.0778 ± 0.1
GCAAAGCAAUAUUACGCGCU	-3.48 ± 0.23	-2.01 ± 0.18
UUGUAGCAAUAUUACGAACU	-2.24 ± 0.11	0.102 ± 0.1
UCCGAGCAAUAUUACGUUUG	-3.31 ± 0.2	-3.36 ± 0.25
CAUGAGCAAUAUUACGACUC	-3.85 ± 0.3	-3.38 ± 0.39
CACUAGCAAUAUUACGAAGA	-3.05 ± 0.24	-2.27 ± 0.2
UACAAGCAAUAUUACGCACA	-1.23 ± 0.11	-0.242 ± 0.11
GACGAGCAAUAUUACGCUUA	-2.29 ± 0.15	-1.13 ± 0.14
AUUCAGCAAUAUUACGAAAU	-1 ± 0.091	-0.557 ± 0.1
UACCAGCAAUAUUACGGUAA	-1.77 ± 0.076	-0.857 ± 0.074
CCCAAGCAAUAUUACGUUCA	-3.21 ± 0.23	-2.39 ± 0.29
CCGUAGCAAUAUUACGCAAG	-2.09 ± 0.18	-1.46 ± 0.18
UCCCAGCAAUAUUACGGCUU	-2.62 ± 0.14	-1.65 ± 0.17
UGGCAGCAAUAUUACGUGAC	-2.83 ± 0.31	-1.22 ± 0.25
